Earlier results as cited in PMC8777194.

Target: Leader protein L L (Encephalomyocarditis virus) (UniProt P03304)

2A protein 2A (from UniProt P03304)
Kd: 1500 nM
